Kd data for one sequence are collected here from the Immune Epitope Database (IEDB).

Usually pKd stands for the Kd on a negative log10 scale, so that one unit is a factor of ten.

pKd: −log10 of the molar value. Some results are limits rather than exact numbers.

For test [1], the target named is HLA-A*03:19. As to the kind of experiment: IEDB peptide-MHC binding, purified MHC/competitive/fluorescence; filed as Kd, often an IC50 or EC50 that approximates it; ≥ and ≤ were set here for values at or beyond the usual limits of such assays. Particulars: source organism: Kurkino virus.
For test [2], the target named is HLA-A*32:07. Described as above. Particulars: source organism: Kurkino virus.
The target in test [3] is HLA-B*45:06. Described as above. As to conditions: source organism: Kurkino virus.
The target of test [4] is HLA-A*32:15. The description is as above. Particulars: source organism: Kurkino virus.
For test [5], the target named is HLA-B*15:42. The test is described as above. Particulars: source organism: Kurkino virus.
In test [6] the target is HLA-B*27:20. The test is described as above. As to conditions: source organism: Kurkino virus.
Test [7] deals with HLA-B*40:13. The description is as above. Particulars: source organism: Kurkino virus.
Test [8] concerns the target HLA-B*83:01. The description is as above. Particulars: source organism: Kurkino virus.
In test [9] the target is HLA-A*02:19. As to the kind of experiment: IEDB peptide-MHC binding, purified MHC/direct/fluorescence; filed as Kd, often an IC50 or EC50 that approximates it; ≥ and ≤ were set here for values at or beyond the usual limits of such assays. Particulars: source organism: Kurkino virus.
Test [10] addresses HLA-A*02:01. The description is as above. Particulars: source organism: Orthohantavirus dobravaense.
The target in test [11] is HLA-A*02:12. The description is as above. As to conditions: source organism: Kurkino virus.
Test [12] addresses HLA-A*69:01. The description is as above. Particulars: source organism: Orthohantavirus dobravaense.
Test [13] has as its target HLA-A*02:11. Described as above. Particulars: source organism: Kurkino virus.

Turning to SLYSGFPSL, the pKd in [1] was 7.58; in test [2], 8.60; in test [3], at most 5.30; in [4] it was 7.52; in test [5], at most 5.30; in [6], 7.58. Further, the negative logarithm of the Kd (pKd) was 6.80 in test [7]; at most 5.30 in test [8]; 7.38 in test [9]; at least 9.00 in [10]; at least 9.00 in test [11]; at least 9.00 in [12]. In addition, in [13], the negative logarithm of the Kd (pKd) was at least 9.00.
